In US20120107323A1, “KINASE PROTEIN BINDING INHIBITORS” (University of Florida, published 2012):

Columns and labels:
[1] = biological target: T1, Insulin-like Growth Factor 1 Receptor (IGF-1R), endogenous, of C8161 and A375 melanoma cells (human, UniProt P08069); assay: co-immunoprecipitation from C8161 tumours of mice treated with the small molecule INT2-31, densitometry of Western blot
Method: (§1) (p<0.05). […] To assess the in vivo effects of INT2-31 on cell proliferation, C8161 xenografts were stained with Ki67 antibody (FIG. 20C). […] The effect of INT2-31 on the in vivo interaction of FAK and IGF-1R in C8161 tumors was analyzed by immunoprecipitation of FAK from treated and untreated tumor. […] Finally, tumor analysis for AKT activation was performed and the level of p-AKT was detected by Western blot. […] Therefore, our lead compound, INT2-31, decreases in vivo tumor growth, disrupts the in vivo interaction of FAK and IGF-1R and results in a decrease in phosphorylation of AKT.

[2] = biological target: T1, Insulin-like Growth Factor 1 Receptor …; assay: co-immunoprecipitation from C8161 tumours of PBS treated mice, densitometry of Western blot
Method: as §1

B1: Focal adhesion kinase (FAK), endogenous, of C8161 and A375 melanoma cells (enzyme)
chain: AAAYLDPNLNHTPNSSTKTHLGTGMERSPGAMERVLKVFHYFESNSEPTTWASIIRHGDATDVRGIIQKIVDSHKVKHVACYGFRLSHLRSEEVHWLHVDMGVSSVREKYELAHPPEEWKYELRIRYLPKGFLNQFTEDKPTLNFFYQQVKSDYMLEIADQVDQEIALKLGCLEIRRSYWEMRGNALEKKSNYEVLEKDVGLKRFFPKSLLDSVKAKTLRKLIQQTFRQFANLNREESILKFFEILSPVYRFDKECFKCALGSSWIISVELAIGPEEGISYLTDKGCNPTHLADFTQVQTIQYSNSEDKDRKGMLQLKIAGAPEPLTVTAPSLTIAENMADLIDGYCRLVNGTSQSFIIRPQKEGERALPSIPKLANSEKQGMRTHAVSVSETDDYAEIIDEEDTYTMPSTRDYEIQRERIELGRCIGEGQFGDVHQGIYMSPENPALAVAIKTCKNCTSDSVREKFLQEALTMRQFDHPHIVKLIGVITENPVWIIMELCTLGELRSFLQVRKYSLDLASLILYAYQLSTALAYLESKRFVHRDIAARNVLVSSNDCVKLGDFGLSRYMEDSTYYKASKGKLPIKWMAPESINFRRFTSASDVWMFGVCMWEILMHGVKPFQGVKNNDVIGRIENGERLPMPPNCPPTLYSLMTKCWAYDPSRRPRFTELKAQLSTILEEEKAQQEERMRMESRRQATVSWDSGGSDEAPPKPSRPGYPSPRSSEGFYPSPQHMVQTNHYQVSGYPGSHGITAMAGSIYPGQASLLDQTDSWNHRPQEIAMWQPNVEDSTVLDLRGIGQVLPTHLMEERLIRQQQEMEEDQRWLEKEERFLKPDVRLSRGSIDREDGSLQGPIGNQHIYQPVGKPDPAAPPKKPPRPGAPGHLGSLASLSSPADSYNEGVKLQPQEISPPPTANLDRSNDKVYENVTGLVKAVIEMSSKIQPAPPEEYVPMVKEVGLALRTLLATVDETIPLLPASTHREIEMAQKLLNSDLGELINKMKLAQQYVMTSLQQEYKKQMLTAAHALAVDAKNLLDVIDQARLKMLGQTRPH
Which results are given for B1?
densitometry ratio of IGF-1R to FAK [1]: 0.78; densitometry ratio of IGF-1R to FAK [2]: 0.98
